The subject of the series is NCI-H460 tumor-bearing mice (lung cancer). The series is described as follows: Biodistribution: lutetium accumulation in tumor, plasma and healthy tissues by ICP-MS. Type of series: in vivo. To be noted: for Kidney uptake, % ID/g 24 h / Liver uptake, % ID/g 24 h / Plasma, % ID/g 24 h / Tumor uptake, % ID/g, 24 h: second table. How it is done:
Lutetium accumulation was measured in tumor, plasma and healthy tissues of NCI-H460 tumor-bearing mice (lung cancer). NCJ-H460 tumor bearing mice were dosed with 0.5 mg/kg of lutetium conjugates. At the time points indicated, mice were sacrificed and tumor, liver, kidneys and plasma were taken. All tissues were analyzed for lutetium content by ICP-MS, and lutetium uptake in % ID/g determined by the following equation: […]
Biodistribution at 24 h and Tumor/Kidney ratio (T/K), Tumor/Liver ratio (T/L), Tumor/Plasma ratio (T/P) are give in the table below.

Consider `CCNC(=O)c1nnc(-c2cc(C(C)C)c(O)cc2O)n1-c1ccc(C2CCN(C(=O)CCOCCOCCOCCOCCNC(=O)CN3CCN4CCN5CCN(CC3)CC(=O)[O][Lu]([O]C(=O)C4)[O]C(=O)C5)CC2)cc1` [CMP30], for which, where the note is “24 h”, the “T/K (Tumor/Kidney ratio)” value stood at 2.57; the “T/L (Tumor/Liver ratio)” value worked out at 0.62; the “T/P (Tumor/Plasma ratio)” value is 2.75; the “Tumor uptake, % ID/g, 24 h” value worked out at 1.95 % ID/g. Moreover, the “Kidney uptake, % ID/g 24 h” value (kidney, 24 h) turned out to be 0.76 % ID/g. In addition, the “Liver uptake, % ID/g 24 h” value (liver, 24 h) worked out at 3.16 % ID/g. Besides, the “Plasma, % ID/g 24 h” value (plasma, 24 h) was 0.71 % ID/g.
For `CC(C)c1cc(-c2nnc(O)n2-c2ccc(OC3CCN(C(=O)CCOCCOCCOCCOCCOCCOCCOCCOCCOCCOCCOCCOCCNC(=O)CN4CCN5CCN6CCN(CC4)CC(=O)[O][Lu]([O]C(=O)C5)[O]C(=O)C6)CC3)cc2)c(O)cc1O` [CMP42], for the setting “24 h”, the “T/K (Tumor/Kidney ratio)” value is recorded as 2.23; the “T/L (Tumor/Liver ratio)” value came out at 9.89; the “T/P (Tumor/Plasma ratio)” value was found to be 26.76; the “Tumor uptake, % ID/g, 24 h” value turned out to be 0.57 % ID/g. The “Kidney uptake, % ID/g 24 h” value (kidney, 24 h) was 0.26 % ID/g. Further, the “Liver uptake, % ID/g 24 h” value (liver, 24 h) was 0.06 % ID/g. Further, the “Plasma, % ID/g 24 h” value (plasma, 24 h) amounted to 0.02 % ID/g.
With `CCNC(=O)c1nnc(-c2cc(C(C)C)c(O)cc2O)n1-c1ccc(CC2CCN(C(=O)C[C@H](NC(=O)CN3CCN4CCN5CCN(CC3)CC(=O)[O][Lu]([O]C(=O)C4)[O]C(=O)C5)C(=O)N[C@H](C)C(=O)N3CCC(Cc4ccc(-n5c(C(=O)NCC)nnc5-c5cc(C(C)C)c(O)cc5O)cc4)CC3)CC2)cc1` [CMP27], under “24 h”, the “T/K (Tumor/Kidney ratio)” value is listed as 1.13; the “T/L (Tumor/Liver ratio)” value was 0.50; the “T/P (Tumor/Plasma ratio)” value stood at 1.53; the “Tumor uptake, % ID/g, 24 h” value stood at 7.50 % ID/g. Moreover, for the setting “kidney, 24 h”, the “Kidney uptake, % ID/g 24 h” value came out at 6.66 % ID/g. Further, the “Liver uptake, % ID/g 24 h” value (liver, 24 h) was determined as 14.98 % ID/g. For the same compound, the “Plasma, % ID/g 24 h” value (plasma, 24 h) was determined as 4.89 % ID/g.
In the case of `CCNC(=O)c1nnc(-c2cc(C(C)C)c(O)cc2O)n1-c1ccc(CC2CCN(C(=O)CCOCCOCCOCCOCCNC(=O)[C@H](CCCCNC(=O)CCCc3ccc(I)cc3)NC(=O)CN(CC)CCN3CCN4CCN(C)CC(=O)[O][Lu]([O]C(=O)C4)[O]C(=O)C3)CC2)cc1` [CMP4], under “24 h”, the “T/K (Tumor/Kidney ratio)” value was determined as 2.53; the “T/L (Tumor/Liver ratio)” value is listed as 3.55; the “T/P (Tumor/Plasma ratio)” value was determined as 0.87; the “Tumor uptake, % ID/g, 24 h” value was 8.21 % ID/g. The “Kidney uptake, % ID/g 24 h” value (kidney, 24 h) is recorded as 3.24 % ID/g. Further, the “Liver uptake, % ID/g 24 h” value (liver, 24 h) turned out to be 2.31 % ID/g. The “Plasma, % ID/g 24 h” value (plasma, 24 h) amounted to 9.48 % ID/g.
As for `CCNC(=O)c1nnc(-c2cc(C(C)C)c(O)cc2O)n1-c1ccc(CN2CCN(C(=O)CC[C@H](NC(=O)CCNC(=O)[C@@H](CCC(=O)O)NC(=O)[C@@H](CCC(=O)O)NC(=O)[C@@H](CCC(=O)O)NC(=O)COCCOCCNC(=O)CC[C@H](C(=O)O)N3CCN4CCN5CCN(CC3)CC(=O)[O][Lu]([O]C(=O)C5)[O]C(=O)C4)C(=O)N3CCN(Cc4ccc(-n5c(C(=O)NCC)nnc5-c5cc(C(C)C)c(O)cc5O)cc4)CC3)CC2)cc1` [T5], the “% ID/g uptake, H460 tumor, 24 h” value (0.5 mg/kg lutetium conjugate, H460 tumor, 24 h) is recorded as 1.74 % ID/g. The “% ID/g uptake, H460 tumor, 72 h” value (0.5 mg/kg lutetium conjugate, H460 tumor, 72 h) was 0.00 % ID/g. The “% ID/g uptake, Kidney, 24 h” value (0.5 mg/kg lutetium conjugate, kidney, 24 h) is 3.14 % ID/g. Also, the “% ID/g uptake, Kidney, 72 h” value (0.5 mg/kg lutetium conjugate, kidney, 72 h) amounted to 1.08 % ID/g. Also, under “0.5 mg/kg lutetium conjugate, liver, 24 h”, the “% ID/g uptake, Liver, 24 h” value came out at 0.68 % ID/g. For the same compound, the “% ID/g uptake, Liver, 72 h” value (0.5 mg/kg lutetium conjugate, liver, 72 h) amounted to 0.23 % ID/g. Moreover, the “% ID/g uptake, Plasma, 24 h” value (0.5 mg/kg lutetium conjugate, plasma, 24 h) is 0.16 % ID/g. Also, the “% ID/g uptake, Plasma, 72 h” value (0.5 mg/kg lutetium conjugate, plasma, 72 h) is on record as 0.01 % ID/g.
Consider `CCNC(=O)c1nnc(-c2cc(C(C)C)c(O)cc2O)n1-c1ccc(OC2CCN(C(=O)CCNC(=O)[C@@H](CCC(=O)N3CCC(Oc4ccc(-n5c(C(=O)NCC)nnc5-c5cc(C(C)C)c(O)cc5O)cc4)CC3)NC(=O)CCOCCOCCOCCOCCOCCOCCOCCOCCOCCOCCOCCOCCNC(=O)CN3CCN4CCN5CCN(CC3)CC(=O)[O][Lu]([O]C(=O)C4)[O]C(=O)C5)CC2)cc1` [CMP36], for which, for the setting “24 h”, the “T/K (Tumor/Kidney ratio)” value is 0.99; the “T/L (Tumor/Liver ratio)” value came out at 0.41; the “T/P (Tumor/Plasma ratio)” value was found to be 7.34; the “Tumor uptake, % ID/g, 24 h” value was determined as 3.32 % ID/g. In addition, the “Kidney uptake, % ID/g 24 h” value (kidney, 24 h) stood at 3.36 % ID/g. Further, for the setting “liver, 24 h”, the “Liver uptake, % ID/g 24 h” value is given as 8.16 % ID/g. For the same compound, the “Plasma, % ID/g 24 h” value (plasma, 24 h) is recorded as 0.45 % ID/g.
With `CCNC(=O)c1nnc(-c2cc(C(C)C)c(O)cc2O)n1-c1ccc(CC2CCN(C(=O)CCOCC(COCCC(=O)N3CCC(Cc4ccc(-n5c(C(=O)NCC)nnc5-c5cc(C(C)C)c(O)cc5O)cc4)CC3)NC(=O)CC[C@H](C(=O)O)N3CCN4CCN5CCN(CC3)CC(=O)[O][Lu]([O]C(=O)C5)[O]C(=O)C4)CC2)cc1` [CMP8], where the note is “24 h”, the “T/K (Tumor/Kidney ratio)” value was 2.01; the “T/L (Tumor/Liver ratio)” value is 1.67; the “T/P (Tumor/Plasma ratio)” value is 4.01; the “Tumor uptake, % ID/g, 24 h” value turned out to be 5.86 % ID/g. For the setting “kidney, 24 h”, the “Kidney uptake, % ID/g 24 h” value came to 2.91 % ID/g. In addition, where the note is “liver, 24 h”, the “Liver uptake, % ID/g 24 h” value was 3.50 % ID/g. The “Plasma, % ID/g 24 h” value (plasma, 24 h) was determined as 1.46 % ID/g.

Values taken from patent US20260166158A1, “HSP90-BINDING CONJUGATES AND FORMULATIONS THEREOF” (Fusion Pharmaceuticals Inc., priority 2019, published 2026).
